Laboratory results reported in PMC11466962, “Nup358 restricts ER-mitochondria connectivity by modulating mTORC2/Akt/GSK3β signalling” (EMBO Reports, 2024).

Molecular target: T1, GST-Nup358-MC2 (2012–2771 aa) (human, UniProt P49792 2012-2771)
T1 construct: also called GST-tagged Nup358-MC2; source: E. coli BL21 CodonPlus RIL (DE3), purified (Glutathione Agarose Beads)
Test: co-IP; in vitro: 2 µM MBP protein incubated with 1.5 µM GST-Nup358-MC2 in 25 mM Tris-HCl pH 7.4, 150 mM NaCl, 5% glycerol, 0.01% Tween20, 2 h, 4 °C; MBP proteins immunoprecipitated with anti-MBP antibody on Protein G Dynabeads; western blot for Nup358-MC2
Settings: both partners purified

T1 sequence (P49792 2012-2771): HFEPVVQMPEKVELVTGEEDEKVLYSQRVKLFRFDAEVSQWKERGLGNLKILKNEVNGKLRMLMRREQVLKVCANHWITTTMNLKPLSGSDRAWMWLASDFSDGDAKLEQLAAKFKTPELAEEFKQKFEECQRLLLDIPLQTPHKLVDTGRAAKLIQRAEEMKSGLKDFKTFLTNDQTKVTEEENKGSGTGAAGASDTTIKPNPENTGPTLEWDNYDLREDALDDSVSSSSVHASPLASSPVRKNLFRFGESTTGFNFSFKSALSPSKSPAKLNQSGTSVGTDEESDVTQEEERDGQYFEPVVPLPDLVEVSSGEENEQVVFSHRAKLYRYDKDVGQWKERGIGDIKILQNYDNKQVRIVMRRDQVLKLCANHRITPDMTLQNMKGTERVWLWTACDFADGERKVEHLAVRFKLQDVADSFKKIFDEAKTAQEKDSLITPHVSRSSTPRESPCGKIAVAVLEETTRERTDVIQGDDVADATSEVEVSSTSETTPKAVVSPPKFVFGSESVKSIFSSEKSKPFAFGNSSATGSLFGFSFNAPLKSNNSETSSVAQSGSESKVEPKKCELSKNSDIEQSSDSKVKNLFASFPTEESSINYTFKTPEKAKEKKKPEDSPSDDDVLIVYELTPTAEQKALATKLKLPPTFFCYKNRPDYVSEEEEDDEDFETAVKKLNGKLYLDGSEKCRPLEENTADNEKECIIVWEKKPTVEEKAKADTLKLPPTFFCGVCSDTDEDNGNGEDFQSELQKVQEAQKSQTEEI

binding result: binds
B1: MBP-PTPIP51 (36–470 aa) (domain or fragment, UniProt Q96TC7 36-470, looked up)
chain: KRTQRHGRSQSLPNSLDYTQTSDPGRHVMLLRAVPGGAGDASVLPSLPREGQEKVLDRLDFVLTSLVALRREVEELRSSLRGLAGEIVGEVRCHMEENQRVARRRRFPFVRERSDSTGSSSVYFTASSGATFTDAESEGGYTTANAESDNERDSDKESEDGEDEVSCETVKMGRKDSLDLEEEAASGASSALEAGGSSGLEDVLPLLQQADELHRGDEQGKREGFQLLLNNKLVYGSRQDFLWRLARAYSDMCELTEEVSEKKSYALDGKEEAEAALEKGDESADCHLWYAVLCGQLAEHESIQRRIQSGFSFKEHVDKAIALQPENPMAHFLLGRWCYQVSHLSWLEKKTATALLESPLSATVEDALQSFLKAEELQPGFSKAGRVYISKCYRELGKNSEARWWMKLALELPDVTKEDLAIQKDLEELEVILRD
notes: PTPIP51 (RMDN3), residues 36-470, cloned into pMAL-c2; source: E. coli BL21 Star (DE3), purified (Ni-NTA, Amylose resin); not shown: MBP, N-terminal, kept
